1 substance from PMC5234717 (Journal of Lipid Research, 2016) can be followed below.

The target of the test is Burkholderia pseudomallei K96243 sphingosine-1-phosphate lyase S1PL2021 (shorter ORF of BPSS2021, st (Burkholderia pseudomallei K96243)). The test can be described thus: SEC.

“Burkholderia pseudomallei K96243 sphingosine-1-phosphate lyase S1PL2021 (shorter ORF of BPSS2021, st (enzyme)”: the stoichiometry N worked out at 2.
